Data on one molecule can be found in patent US20120014911A1 (published 2012).

The target of this experiment is T1, endogenous PKD1 from 293T cells (human, UniProt Q15139 1-912).
T1 construct: also called PKD1/PKCµ
T1 sequence (looked up): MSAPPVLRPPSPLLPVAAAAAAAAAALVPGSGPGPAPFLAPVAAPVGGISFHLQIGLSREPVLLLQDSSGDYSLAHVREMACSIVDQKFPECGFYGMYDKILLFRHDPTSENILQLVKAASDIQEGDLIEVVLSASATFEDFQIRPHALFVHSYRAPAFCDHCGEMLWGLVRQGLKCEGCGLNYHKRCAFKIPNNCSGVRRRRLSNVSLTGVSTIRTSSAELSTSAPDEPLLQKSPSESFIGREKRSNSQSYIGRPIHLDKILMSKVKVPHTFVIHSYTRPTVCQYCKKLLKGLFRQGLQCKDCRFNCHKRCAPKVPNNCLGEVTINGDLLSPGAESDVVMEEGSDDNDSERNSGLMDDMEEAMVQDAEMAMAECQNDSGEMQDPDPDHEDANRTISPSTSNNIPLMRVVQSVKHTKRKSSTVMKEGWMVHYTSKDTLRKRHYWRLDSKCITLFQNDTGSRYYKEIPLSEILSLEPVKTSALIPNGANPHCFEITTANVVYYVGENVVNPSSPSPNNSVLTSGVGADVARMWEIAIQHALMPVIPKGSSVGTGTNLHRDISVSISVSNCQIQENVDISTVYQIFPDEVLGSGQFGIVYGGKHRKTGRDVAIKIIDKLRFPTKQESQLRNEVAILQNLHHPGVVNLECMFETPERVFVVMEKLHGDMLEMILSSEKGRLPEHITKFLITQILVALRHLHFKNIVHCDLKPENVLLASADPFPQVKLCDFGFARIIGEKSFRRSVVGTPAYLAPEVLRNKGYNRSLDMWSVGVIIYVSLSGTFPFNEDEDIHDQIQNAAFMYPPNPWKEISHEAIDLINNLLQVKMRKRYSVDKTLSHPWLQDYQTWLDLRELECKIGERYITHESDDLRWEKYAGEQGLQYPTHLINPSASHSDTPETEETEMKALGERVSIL
The experiment is described as follows: co-immunoprecipitation of endogenous proteins from 293T cell lysates, untreated or treated with IFN-α.

B1: endogenous IFNAR1 from 293T cells (receptor, human, UniProt P17181 28-557, looked up)
chain: KNLKSPQKVEVDIIDDNFILRWNRSDESVGNVTFSFDYQKTGMDNWIKLSGCQNITSTKCNFSSLKLNVYEEIKLRIRAEKENTSSWYEVDSFTPFRKAQIGPPEVHLEAEDKAIVIHISPGTKDSVMWALDGLSFTYSLVIWKNSSGVEERIENIYSRHKIYKLSPETTYCLKVKAALLTSWKIGVYSPVHCIKTTVENELPPPENIEVSVQNQNYVLKWDYTYANMTFQVQWLHAFLKRNPGNHLYKWKQIPDCENVKTTQCVFPQNVFQKGIYLLRVQASDGNNTSFWSEEIKFDTEIQAFLLPPVFNIRSLSDSFHIYIGAPKQSGNTPVIQDYPLIYEIIFWENTSNAERKIIEKKTDVTVPNLKPLTVYCVKARAHTMDEKLNKSSVFSDAVCEKTKPGNTSKIWLIVGICIALFALPFVIYAAKVFLRCINYVFFPSLKPSSSIDEYFSEQPLKNLLLSTSEEQIEKCFIIENISTIATVEETNQTDEDHKKYSSQTSQDSGNYSNEDESESKTSEELQQDFV
notes: also called the receptor
Turning to B1, the binding result is recorded as “no binding”.
